Assay results taken from patent US20100104530A1 (published 2010).
Residue numbers refer to the chain shown, from its start.

Key:
[1] = biological target: T1, VPAC1 receptor of mouse bone marrow-derived CD41/61+ megakaryocytes (mouse, UniProt P97751 31-459); experiment: immunoblot of mouse bone marrow megakaryocytes
T1 construct: whole, on cells; Detected by immunoblot of megakaryocytes and addressed on living megakaryocytes in the cAMP assays; also called VPAC1 receptor on the murine megakaryocytes
T1 sequence (looked up): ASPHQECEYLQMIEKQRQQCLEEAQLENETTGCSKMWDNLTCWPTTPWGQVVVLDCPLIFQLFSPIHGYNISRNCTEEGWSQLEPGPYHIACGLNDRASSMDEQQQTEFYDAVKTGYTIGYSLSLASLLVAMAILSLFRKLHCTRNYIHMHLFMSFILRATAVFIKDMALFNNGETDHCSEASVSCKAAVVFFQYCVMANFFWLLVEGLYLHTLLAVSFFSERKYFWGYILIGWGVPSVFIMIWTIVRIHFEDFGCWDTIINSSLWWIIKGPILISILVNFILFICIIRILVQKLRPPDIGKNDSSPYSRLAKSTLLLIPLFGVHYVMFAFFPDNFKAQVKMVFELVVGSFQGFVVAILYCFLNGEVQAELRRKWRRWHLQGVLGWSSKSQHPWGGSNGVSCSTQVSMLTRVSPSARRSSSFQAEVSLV

[2] = biological target: T2, GST fusion of VPAC1 variant 4-2 (amino acids 231-457 of SEQ ID NO:15) (human, UniProt P32241 231-457); experiment: western blot on GST-fused VPAC1 deletion variants
T2 construct: not shown: GST carrier and the pGEX vector linker
T2 sequence: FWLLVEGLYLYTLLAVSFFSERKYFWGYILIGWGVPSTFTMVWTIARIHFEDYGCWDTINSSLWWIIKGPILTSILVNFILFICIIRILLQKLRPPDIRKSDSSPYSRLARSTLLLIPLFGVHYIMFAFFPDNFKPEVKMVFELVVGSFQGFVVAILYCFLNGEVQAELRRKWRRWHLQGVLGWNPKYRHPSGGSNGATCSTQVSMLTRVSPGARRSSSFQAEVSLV
Protocol: (§1) For the epitope mapping of 23A11, several VPAC1 deletion variants were fused to GST and expressed. Binding of 23A11 to the VPAC1 deletion variants was tested by western blotting.
(§2) VPAC1 variant 4-2 (and, to a lesser extent, variant 3-2) was recognized by 23A11. Since this protein contains the second as well as the third extracellular loop of VPAC1, both loops (extracellular loop 2: SEQ ID NO:1; extracellular loop 3:SEQ ID NO:1) were made as GST fusion proteins and tested in western blotting. The murine antibody 23A11 was binding to each of these loops.

[3] = biological target: T3, GST fusion of VPAC1 variant 3-2 (amino acids 123-457 of SEQ ID NO:15) (human, UniProt P32241 123-457); experiment: western blot on GST-fused VPAC1 deletion variants
T3 construct: not shown: GST carrier and the pGEX vector linker
T3 sequence: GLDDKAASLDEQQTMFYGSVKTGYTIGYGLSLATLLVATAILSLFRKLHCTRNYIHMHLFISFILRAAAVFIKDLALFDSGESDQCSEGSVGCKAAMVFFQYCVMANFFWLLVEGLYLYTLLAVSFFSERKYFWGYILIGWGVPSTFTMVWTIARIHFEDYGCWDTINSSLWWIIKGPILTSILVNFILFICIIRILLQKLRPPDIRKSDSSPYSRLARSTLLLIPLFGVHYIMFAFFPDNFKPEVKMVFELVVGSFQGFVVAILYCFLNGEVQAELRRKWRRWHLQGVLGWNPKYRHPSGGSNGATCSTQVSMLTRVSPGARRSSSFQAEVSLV
Protocol: as §1, §2

[4] = biological target: T4, GST fusion of VPAC1 extracellular loop 2 (human); experiment: western blot on GST fusion of extracellular loop 2
T4 construct: also called isolated extracellular loop 2 of the VPAC1 receptor; not shown: glutathione-S-transferase (GST)
T4 chain: IHFEDYGCWDTINSSLWW

[5] = biological target: T5, GST fusion of VPAC1 extracellular loop 3 (human); experiment: western blot on GST fusion of extracellular loop 3
T5 construct: also called isolated extracellular loop 3 of the VPAC1 receptor; not shown: glutathione-S-transferase (GST)
T5 chain: PDNFKPEVKMLFE

[6] = biological target: T6, GST-VPAC1 fusion protein (full length human VPAC1) (human, UniProt P08515 1-218 = GST); experiment: SPR (BIAcore 1000), GST-VPAC1 immobilised on CM5, antibody injected, 1:1 Langmuir fit; first batch; first of two batches of murine 23A11
T6 construct: also called recombinant VPAC1
Protocol: (§3) For kinetic binding analysis of GST-VPAC1 with the GST-VPAC1-antibodies, we used a BIAcore surface plasmon resonance system at 25° C. These interactions were performed on a BIAcore 1000. GST-VPAC1 was covalently immobilized on a CM5 sensorchip (carboxylated dextran matrix) after activation with a 1:1 mixture of 1-ethyl-3-(3-dimethylaminopropyl)carbodiimide and N-hydroxysuccinimide. The remaining active sites on the chip were blocked by 1.0 M ethanolamine-HCl at pH 8.5. To perform binding assays with the GST-VPAC1-antibodies, various concentrations (ranging from 250 nm to 5 nm) of murine 23A11 were injected over the immobilized GST-VPAC-1 at a flow rate of 30 μl/min. This was performed in a running buffer consisting of 0.01 M HEPES at pH 7.4, 0.15M NaCl, 3 mM EDTA and 0.005% Surfactant P20 (or Tween 20). The sensorgrams were evaluated using the BIAevaluation 4.1 software. The rate constants kₐ and kd and the dissociation constant KD were determined by using a global fit with a Langmuir 1:1 binding model with baseline drift.

[7] = biological target: T6, GST-VPAC1 fusion protein (full length …); experiment: SPR (BIAcore 1000), GST-VPAC1 immobilised on CM5, antibody injected, 1:1 Langmuir fit; second batch; second of two batches of murine 23A11
Protocol: as §3

[8] = biological target: T6, GST-VPAC1 fusion protein (full length …); experiment: SPR (BIAcore 1000), GST-VPAC1 immobilised on CM5, 1:1 Langmuir fit; humanized 23A11, isotype not stated

B1: murine anti-VPAC1 monoclonal antibody 23A11 (antibody, V domains shown)
VH: EVQLQESGPSLVKPSQTLSLTCSVTGDSITSGYWNWIRKFPGNKLEYMGYIRYSGSTYYSPALKSRFSITRDTSKNQYYLQLNSVTTEDTATYYCSNWAYWGQGTLVTVSA
VL: DIVITQDELSNPVTSGESVSISCRSSKSLLYKDGKTYLNWFLQRPGQSPQLLIYLMSTRASGVSDRFSGSGSGTDFTLEISRVKAEDVGVYYCQQLVEYPLTFGAGTKLELK
notes: Mouse monoclonal antibody from a hybridoma; also called murine 23A11; anti-VPAC1 receptor antibody 23A11
Q: What does the source list for B1?
A: binding result [1]: binds; binding result [2]: binds; binding result [3]: binds; binding result [4]: binds; binding result [5]: binds; Kd [6]: 28.3 nM; Kd [7]: 19.9 nM

B2: humanized anti-VPAC1 monoclonal antibody 23A11 (antibody, V domains shown)
VH: EVQLQESGPGLVKPSQTLSLTCTVSGDSITSGYWNWIRKHPGKGLEYMGYIRYSGSTYYSPSLKSRFTISRDTSKNQYSLKLSSVTAADTATYYCSNWAYWGQGTLVTVSA
VL: B1 VL with D7S, E8P, N11L, S15P, S18P, E79K, K84E, A105Q, L111I
notes: also called h23A11; rhu23A11
Q: B2 was tested. Which Kd [8] did it give?
A: 9.82 nM
